From US20150133308A1 (KOREA ADVANCED INSTITUTE OF SCIENCE AND TECHNOLOGY, published 2015)

Target: T1, human interleukin-6 (human, UniProt P05231 30-212)
T1 construct: also called hIL-6; IL-6
Assay: phage ELISA, 96-well plate coated with IL-6 and BSA

B1: r-B10 (designed binder)
chain: ETITVSTPIKQIFPDDAFAETIKANLKKKSVTDAVTQNELNSIDQIIANNSDIKSVQGIQYLPNVRYLALGGNKLHDISALKELTNLTYLVLDPNQLQSLPNGVFDKLTNLKELSLWTNQLQSLPDGVFDKLTNLTYLNLAHNQLQSLPKGVFDKLTNLTELDLSYNQLQSLPEGVFDKLTQLKDLRLYQNQLKSVPDGVFDRLTSLQYIWLHDNPWDCTCPGIRYLSEWINKHSGVVRNSAGSVAPDSAKCSGSGKPVRSIICPT
notes: on phage in the ELISA
- OD450 on IL-6 relative to BSA: ≥ 10 fold

B2: r-F7 (designed binder)
chain: B1 chain
notes: on phage in the ELISA
- OD450 on IL-6 relative to BSA: ≥ 10 fold
